Residue numbers refer to the chain shown, from its start. Numbers in names are those of the source.
What was measured:
[1] = target: T1, purified human C1q (human, UniProt P02745 23-245; P02746 28-253; P02747 29-245); test: C1q binding ELISA: plate coated with 1 µg/mL antibody, purified C1q titrated 0.010-30 µg/mL; SD 0.8, n 3
T1 construct: Purified C1q, Quidel Cat # A400; multimer of A, B and C chains
Protocol: (§1) A binding ELISA was performed to evaluate the effect of different substitutions on C1q binding. […] Plates were washed and blocked for 1 hour at RT with 200 μL/well 0.5×PBS supplemented with 0.025% Tween 20 and 0.1% gelatin while shaking. […] The reaction was stopped by the addition of 100 μL 2% oxalic acid. Absorbance was measured at 405 nm in a BioTek EL808 Microplate Reader (BioSPX). Log transformed data were analyzed by fitting sigmoidal dose-response curves with variable slope using GraphPad Prism software.

[2] = target: T1, purified human C1q; test: C1q binding ELISA (Example 6): plate coated with 1 µg/mL antibody, purified C1q titrated; SD 3.9, n 3
Protocol: as §1

[3] = target: T1, purified human C1q; test: C1q binding ELISA: plate coated with 1 µg/mL antibody, purified C1q titrated 0.010-30 µg/mL; SD 0.2, n 3
Protocol: as §1

[4] = target: T1, purified human C1q; test: C1q binding ELISA (Example 6): plate coated with 1 µg/mL antibody, purified C1q titrated; SD 0.1, n 3
Protocol: as §1

[5] = target: T1, purified human C1q; test: C1q binding ELISA: plate coated with 1 µg/mL antibody, purified C1q titrated 0.010-30 µg/mL; SD 0.1, n 3
Protocol: as §1

[6] = target: human 4-1BB (human, UniProt Q07011 24-255); test: cell-based or functional assay
human 4-1BB, sequence (Q07011 24-255): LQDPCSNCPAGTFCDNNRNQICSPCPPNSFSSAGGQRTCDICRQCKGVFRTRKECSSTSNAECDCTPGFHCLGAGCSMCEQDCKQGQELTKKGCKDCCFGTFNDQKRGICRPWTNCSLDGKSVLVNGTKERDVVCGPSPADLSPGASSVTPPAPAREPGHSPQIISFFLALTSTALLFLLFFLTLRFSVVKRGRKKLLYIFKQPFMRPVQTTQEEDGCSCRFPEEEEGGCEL

[7] = target: human CD40 (human, UniProt P25942 21-277); test: cell-based or functional assay
human CD40, sequence (P25942 21-277): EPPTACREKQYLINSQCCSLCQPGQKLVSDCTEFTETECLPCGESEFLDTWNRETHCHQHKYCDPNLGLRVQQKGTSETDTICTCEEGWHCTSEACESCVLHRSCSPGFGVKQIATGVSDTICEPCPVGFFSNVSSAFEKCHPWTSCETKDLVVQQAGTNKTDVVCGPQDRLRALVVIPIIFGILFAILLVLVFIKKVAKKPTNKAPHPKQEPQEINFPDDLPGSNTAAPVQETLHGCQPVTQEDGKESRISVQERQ

B1: IgG1-hDR5-01-G56T-E333A/P396L/E430G (antibody)
heavy: EVQLQQSGAEVVKPGASVKLSCKASGFNIKDTFIHWVKQAPGQGLEWIGRIDPANTNTKYDPKFQGKATITTDTSSNTAYMELSSLRSEDTAVYYCVRGLYTYYFDYWGQGTLVTVSSASTKGPSVFPLAPSSKSTSGGTAALGCLVKDYFPEPVTVSWNSGALTSGVHTFPAVLQSSGLYSLSSVVTVPSSSLGTQTYICNVNHKPSNTKVDKRVEPKSCDKTHTCPPCPAPELLGGPSVFLFPPKPKDTLMISRTPEVTCVVVDVSHEDPEVKFNWYVDGVEVHNAKTKPREEQYNSTYRVVSVLTVLHQDWLNGKEYKCKVSNKALPAPIAKTISKAKGQPREPQVYTLPPSREEMTKNQVSLTCLVKGFYPSDIAVEWESNGQPENNYKTTPLVLDSDGSFFLYSKLTVDKSRWQQGNVFSCSVMHGALHNHYTQKSLSLSPGK
light: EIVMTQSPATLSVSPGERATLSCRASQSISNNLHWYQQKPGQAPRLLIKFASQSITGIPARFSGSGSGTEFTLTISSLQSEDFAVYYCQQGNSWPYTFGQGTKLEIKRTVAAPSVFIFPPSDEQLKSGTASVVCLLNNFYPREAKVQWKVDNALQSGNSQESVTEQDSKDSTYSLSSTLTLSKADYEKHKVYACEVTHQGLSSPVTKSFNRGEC
notes: IgG1,kappa
EC50 [1]: 1.9 µg/mL

B2: IgG113F-hDR5-01-G56T-E430G (antibody)
heavy: B1 heavy with K275Q, N277K, Y301F, A334E, A340T, N385S, K393N, L397P, V398M, V423I
light: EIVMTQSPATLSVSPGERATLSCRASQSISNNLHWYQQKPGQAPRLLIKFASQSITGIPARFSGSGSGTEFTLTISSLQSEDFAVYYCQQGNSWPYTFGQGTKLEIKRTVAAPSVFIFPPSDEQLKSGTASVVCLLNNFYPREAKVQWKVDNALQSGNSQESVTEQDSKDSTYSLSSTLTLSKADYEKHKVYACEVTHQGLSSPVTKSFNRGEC
notes: also called IgG113F-E430G
EC50 [2]: 11.4 µg/mL

B3: IgG1-hDR5-01-G56T-K326A/E333A/P396L/E430G (antibody)
heavy: B1 heavy with K327A
light: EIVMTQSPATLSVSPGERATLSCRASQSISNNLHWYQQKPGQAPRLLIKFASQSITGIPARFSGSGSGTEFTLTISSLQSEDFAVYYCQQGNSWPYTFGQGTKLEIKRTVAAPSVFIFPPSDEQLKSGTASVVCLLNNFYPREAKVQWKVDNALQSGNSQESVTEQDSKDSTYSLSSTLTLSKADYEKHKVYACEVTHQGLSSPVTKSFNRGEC
notes: IgG1,kappa
EC50 [3]: 1.3 µg/mL

B4: IgG1-hDR5-01-G56T-S267E/H268F/S324T/E430G (antibody)
heavy: B1 heavy with S268E, H269F, S325T, A334E, L397P
light: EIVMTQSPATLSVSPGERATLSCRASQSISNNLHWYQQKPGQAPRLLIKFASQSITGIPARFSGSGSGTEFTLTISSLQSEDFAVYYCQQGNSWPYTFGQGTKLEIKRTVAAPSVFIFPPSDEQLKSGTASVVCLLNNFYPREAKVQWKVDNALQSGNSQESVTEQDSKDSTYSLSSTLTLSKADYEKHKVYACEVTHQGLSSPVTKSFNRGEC
notes: IgG1,kappa
EC50 [4]: 0.5 µg/mL

B5: IgG1-hDR5-01-G56T-K326A/E333A/E430G (antibody)
heavy: B1 heavy with K327A, L397P
light: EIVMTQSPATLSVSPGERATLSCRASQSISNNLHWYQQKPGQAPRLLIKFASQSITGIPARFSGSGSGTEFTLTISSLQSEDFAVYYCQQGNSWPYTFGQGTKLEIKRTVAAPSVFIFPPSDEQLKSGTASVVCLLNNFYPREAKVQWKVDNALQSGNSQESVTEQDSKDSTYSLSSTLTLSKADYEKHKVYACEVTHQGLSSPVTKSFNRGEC
notes: IgG1,kappa
EC50 [5]: 0.8 µg/mL

B6: IgG1-hDR5-01-G56T-K326A/P396L/E430G (antibody)
heavy: B1 heavy with K327A, A334E
light: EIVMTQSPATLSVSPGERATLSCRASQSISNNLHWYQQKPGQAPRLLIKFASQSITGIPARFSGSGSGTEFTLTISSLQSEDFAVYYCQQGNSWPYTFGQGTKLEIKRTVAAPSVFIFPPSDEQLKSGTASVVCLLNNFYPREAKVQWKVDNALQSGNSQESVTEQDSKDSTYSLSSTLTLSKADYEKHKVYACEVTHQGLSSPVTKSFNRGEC
notes: IgG1,kappa
EC50 [5]: 0.6 µg/mL

B7: IgG1-BMS-663513-K326W/E333S/E430G (antibody, V domains shown)
VH: QVQLQQWGAGLLKPSETLSLTCAVYGGSFSGYYWSWIRQSPEKGLEWIGEINHGGYVTYNPSLESRVTISVDTSKNQFSLKLSSVTAADTAVYYCARDYGPGNYDWYFDLWGRGTLVTVSS
VL: EIVLTQSPATLSLSPGERATLSCRASQSVSSYLAWYQQKPGQAPRLLIYDASNRATGIPARFSGSGSGTDFTLTISSLEPEDFAVYYCQQRSNWPPALTFGGGTKVEIK
4-1BB signaling, luciferase reporter Jurkat cells, EC50 [6]: 0.0329 µg/mL

B8: IgG1-CD40-CP870893 (antibody)
heavy: not shown
VL: DIQMTQSPSSVSASVGDRVTITCRASQGIYSWLAWYQQKPGKAPNLLIYTASTLQSGVPSRFSGSGSGTDFTLTISSLQPEDFATYYCQQANIFPLTFGGGTKVEIK
CD40 response, luciferase reporter cells, EC50 [7]: 0.187 µg/mL

B9: IgG1-CD40-CP870893-K326W/E333S/E430G (antibody)
heavy: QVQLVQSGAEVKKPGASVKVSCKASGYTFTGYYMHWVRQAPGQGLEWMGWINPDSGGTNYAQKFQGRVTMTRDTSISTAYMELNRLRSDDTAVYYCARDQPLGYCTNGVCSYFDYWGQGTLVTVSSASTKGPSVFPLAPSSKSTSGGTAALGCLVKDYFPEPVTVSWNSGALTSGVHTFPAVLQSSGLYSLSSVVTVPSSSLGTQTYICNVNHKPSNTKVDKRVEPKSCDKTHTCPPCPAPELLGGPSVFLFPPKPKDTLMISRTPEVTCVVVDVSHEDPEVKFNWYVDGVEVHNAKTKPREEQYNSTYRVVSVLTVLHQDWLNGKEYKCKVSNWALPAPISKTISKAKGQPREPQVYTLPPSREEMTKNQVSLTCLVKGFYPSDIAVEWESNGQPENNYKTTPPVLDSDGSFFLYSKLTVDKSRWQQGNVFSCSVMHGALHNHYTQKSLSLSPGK
VL: B8 VL
CD40 response, luciferase reporter cells, EC50 [7]: 0.0459 µg/mL

B10: IgG1-CD40-SGN40 (antibody)
heavy: not shown
VL: DIQMTQSPSSLSASVGDRVTITCRSSQSLVHSNGNTFLHWYQQKPGKAPKLLIYTVSNRFSGVPSRFSGSGSGTDFTLTISSLQPEDFATYFCSQTTHVPWTFGQGTKVEIK
CD40 response, luciferase reporter cells, EC50 [7]: 3.36 µg/mL

B11: IgG1-CD40-SGN40-E430G (antibody)
heavy: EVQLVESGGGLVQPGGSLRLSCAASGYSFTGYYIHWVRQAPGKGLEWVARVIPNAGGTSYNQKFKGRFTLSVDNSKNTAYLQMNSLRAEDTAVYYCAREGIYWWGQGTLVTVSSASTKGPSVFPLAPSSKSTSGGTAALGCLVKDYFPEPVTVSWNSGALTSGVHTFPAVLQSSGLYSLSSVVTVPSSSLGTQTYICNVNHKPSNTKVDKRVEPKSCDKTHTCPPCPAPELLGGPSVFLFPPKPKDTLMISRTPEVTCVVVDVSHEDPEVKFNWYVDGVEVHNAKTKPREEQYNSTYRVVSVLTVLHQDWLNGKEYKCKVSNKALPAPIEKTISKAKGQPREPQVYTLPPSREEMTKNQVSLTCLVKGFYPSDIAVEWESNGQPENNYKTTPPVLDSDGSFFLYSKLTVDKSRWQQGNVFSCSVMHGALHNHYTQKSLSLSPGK
VL: B10 VL
CD40 response, luciferase reporter cells, EC50 [7]: 0.336 µg/mL

B12: IgG1-CD40-SGN40-K326W/E333S/E430G (antibody)
heavy: EVQLVESGGGLVQPGGSLRLSCAASGYSFTGYYIHWVRQAPGKGLEWVARVIPNAGGTSYNQKFKGRFTLSVDNSKNTAYLQMNSLRAEDTAVYYCAREGIYWWGQGTLVTVSSASTKGPSVFPLAPSSKSTSGGTAALGCLVKDYFPEPVTVSWNSGALTSGVHTFPAVLQSSGLYSLSSVVTVPSSSLGTQTYICNVNHKPSNTKVDKRVEPKSCDKTHTCPPCPAPELLGGPSVFLFPPKPKDTLMISRTPEVTCVVVDVSHEDPEVKFNWYVDGVEVHNAKTKPREEQYNSTYRVVSVLTVLHQDWLNGKEYKCKVSNWALPAPISKTISKAKGQPREPQVYTLPPSREEMTKNQVSLTCLVKGFYPSDIAVEWESNGQPENNYKTTPPVLDSDGSFFLYSKLTVDKSRWQQGNVFSCSVMHGALHNHYTQKSLSLSPGK
VL: B10 VL
CD40 response, luciferase reporter cells, EC50 [7]: 0.018 µg/mL

From patent US20200181277A1 (Genmab, published 2020)
